Source: PMC4366279 (PLoS ONE, 2015)

B1: T. brucei RNA Editing Ligase 1 (TbREL1), full length wild type [modified: [35S]-methionine labelled; [35S]-methionine labelled] [Trypanosoma brucei] / KREPA2 [modified: [35S]-methionine labelled; [35S]-methionine labelled] [Trypanosoma … (parent complex)
chain 1: YMPLPNDQSDFSPYIEIDLPSESRIQSLHKSGLAAQEWVACEKVHGTNFGIYLINQGDHEVVRFAKRSGIMDPNENFFGYHILIDEFTAQIRILNDLLKQKYGLSRVGRLVLNGELFGAKYKHPLVPKSEKWCTLPNGKKFPIAGVQIQREPFPQYSPELHFFAFDIKYSVSGAEEDFVLLGYDEFVEFSSKVPNLLYARALVRGTLDECLAFDVENFMTPLPALLGLGNYPLEGNLAEGVVIRHVRRGDPAVEKHNVSTIIKLRCSSFMELKHPGKQKELKETFIDTVRSGALRRVRGNVTVISDSMLPQVEAAANDLLLNNVSDGRLSNVLSKIGREPLLSGEVSQVDVVLMLAKDALKDFLKEVDSLVLNTTLAFRKLLITNVYFESKRLVEQKWKELMQEEAAAQSEAIPPLSPAAPTKGE
chain 2: MYRRFFRSAAVKHLGTTSAQCLMRATKYPCGAMCRNASSCHPQTLGYQQRFQSTTDKKFHCSVCKKPFRLEMAAKLHLQQAHGGDGSVEAGPGPGVEASSVNVVSTPVPSPISPVERTFVDEEERRPRRMRPTPKPLHQPDRDIPAAAMEEMLGVWDKIGLNRLEGNFVHSTMVMKVFAAPPDVSEIPLYEHVAPEGENPFDSLDHMTTGTVDATYVGHDAFAEVDLVDPFVAAPDQTLNPFRAGKVRNPFTRISPTQREVVKPLQPPQPKEEPLKAPVTPFGQLPMFGQTREPSASFAAAAVSVQAAANPNEVSSPFAAAVSSSPFVGQVASPFAPAQDVAGSPFEASPCAASSPFVTAGGQETSPFAAPSTPASFGQGSLFPPMGTGAPGFTAITETEQRQQELEHGCPTCGKKFSTFEGAAMHSKSKHGIVLESKKVKDRLNRKGVPDLPAYVPSPVDLSSTSPFGTRSAIGASWAETELIPHAQCVSNITIVGRVLDVSQASENVSHVTVFVEGERSGEEETLTLCCFGEVSQKIRGTLKRNATIFASGTLRLHPVYEASNNKYYVSPVVHVSMPTGTLAVIT

Variants of: B1
Assay: co-precipitation (pull-down) with His-tag isolation beads, [35S]-methionine labeled proteins; parent: 100; read off a plot

Point of comparison: chain 1 H161A, percent of parent ~94 % of WT. Against it:
- chain 1 E411A — the same, ~94 % of WT
- chain 1 K361A — lower, ~67 % of WT
- chain 1 S170A — lower, ~66 % of WT
